According to US20230340151A1 (Pfizer, published 2023):

Assays:
[1] = biological target: Human GUCY2c on tumor cells (T84, HT55) (human, UniProt P25092 24-1073); assay: cell-based or functional assay
[2] = biological target: T1, Purified human GUCY2c ECD (recombinant, construct not stated) (human, UniProt P25092 24-430); assay: direct ELISA, coated GUCY2c ECD
T1 construct: also called recombinant human GUCY2c; recombinant GUCY2c protein

[3] = biological target: T2, Human GUCY2C full length (SEQ ID NO: 224), recombinant protein (human, UniProt P25092 24-430, limits assumed); assay: SPR, anti-human IgG capture, 25 C
T2 construct: also called huGUCY2C; biotinylated human GUCY2c
T2 sequence (P25092 24-430 F281L limits assumed): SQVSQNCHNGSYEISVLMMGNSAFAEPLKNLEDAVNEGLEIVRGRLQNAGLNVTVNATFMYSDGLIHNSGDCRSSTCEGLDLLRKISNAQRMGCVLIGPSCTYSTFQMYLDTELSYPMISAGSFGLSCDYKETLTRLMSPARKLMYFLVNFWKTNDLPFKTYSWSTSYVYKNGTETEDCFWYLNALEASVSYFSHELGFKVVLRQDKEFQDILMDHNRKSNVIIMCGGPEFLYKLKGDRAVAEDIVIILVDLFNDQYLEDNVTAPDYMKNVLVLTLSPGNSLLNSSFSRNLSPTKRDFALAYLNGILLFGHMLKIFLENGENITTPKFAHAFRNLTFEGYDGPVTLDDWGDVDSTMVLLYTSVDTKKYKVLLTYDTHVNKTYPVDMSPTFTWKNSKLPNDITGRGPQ

[4] = biological target: T3, Cynomolgus GUCY2C-ECD Cleaved (cynomolgus, UniProt P25092 24-430 (human entry)); assay: SPR, anti-human IgG capture, 25 C
T3 construct: also called CyGUCY2C
T3 chain: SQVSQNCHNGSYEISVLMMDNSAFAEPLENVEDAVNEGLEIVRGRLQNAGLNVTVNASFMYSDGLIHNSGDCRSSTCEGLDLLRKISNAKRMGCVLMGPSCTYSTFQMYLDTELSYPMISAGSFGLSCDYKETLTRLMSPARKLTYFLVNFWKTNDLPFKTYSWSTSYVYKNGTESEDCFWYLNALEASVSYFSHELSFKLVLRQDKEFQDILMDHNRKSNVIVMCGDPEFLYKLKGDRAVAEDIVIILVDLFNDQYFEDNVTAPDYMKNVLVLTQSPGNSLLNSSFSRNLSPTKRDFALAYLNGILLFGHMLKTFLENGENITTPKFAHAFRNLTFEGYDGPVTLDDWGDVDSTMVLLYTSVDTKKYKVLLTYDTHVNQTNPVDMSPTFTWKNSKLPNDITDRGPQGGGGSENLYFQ

[5] = biological target: T4, Murine GUCY2C-ECD cleaved (mouse, UniProt Q3UWA6 20-433); assay: SPR, anti-human IgG capture, 25 C
T4 sequence: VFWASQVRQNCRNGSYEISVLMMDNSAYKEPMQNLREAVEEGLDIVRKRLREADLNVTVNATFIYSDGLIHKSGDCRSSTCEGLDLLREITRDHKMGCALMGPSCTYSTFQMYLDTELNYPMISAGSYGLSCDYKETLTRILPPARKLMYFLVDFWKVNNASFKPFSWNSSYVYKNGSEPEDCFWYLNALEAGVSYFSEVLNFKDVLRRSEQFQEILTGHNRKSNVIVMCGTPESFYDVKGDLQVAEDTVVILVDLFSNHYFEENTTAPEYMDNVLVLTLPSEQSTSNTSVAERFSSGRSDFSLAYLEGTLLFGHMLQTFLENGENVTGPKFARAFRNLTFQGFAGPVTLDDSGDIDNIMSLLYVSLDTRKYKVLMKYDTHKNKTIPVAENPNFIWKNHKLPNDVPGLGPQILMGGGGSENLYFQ

Human CD3 epsilon-delta [6] = biological target: T5, Human CD3 epsilon-delta (human); assay: SPR, anti-human IgG capture, 25 C
T5 construct: Single-chain epsilon-linker-delta with His6; also called huCD3
T5 chain: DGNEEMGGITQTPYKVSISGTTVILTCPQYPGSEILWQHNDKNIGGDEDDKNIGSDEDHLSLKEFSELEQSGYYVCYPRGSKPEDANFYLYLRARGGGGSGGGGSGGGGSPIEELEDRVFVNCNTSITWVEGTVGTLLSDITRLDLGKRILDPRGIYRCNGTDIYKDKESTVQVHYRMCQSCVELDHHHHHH

Human CD3 epsilon-delta [7] = biological target: T5, Human CD3 epsilon-delta; assay: SPR, CD3 captured by anti-His, 25 C
[8] = biological target: T6, Cynomolgus CD3 epsilon-delta (cynomolgus); assay: SPR, CD3 captured by anti-His, 25 C
T6 chain: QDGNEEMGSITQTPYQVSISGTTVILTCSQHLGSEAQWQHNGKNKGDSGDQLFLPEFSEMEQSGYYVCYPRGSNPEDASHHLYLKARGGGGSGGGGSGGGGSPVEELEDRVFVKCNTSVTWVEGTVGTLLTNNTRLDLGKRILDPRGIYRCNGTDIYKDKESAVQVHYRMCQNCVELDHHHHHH

Human CD3 epsilon-delta [9] = biological target: T5, Human CD3 epsilon-delta; assay: direct ELISA, coated CD3 epsilon-delta
[10] = biological target: T2, Human GUCY2C full length (SEQ ID NO: …); assay: SPR, GUCY2c directly immobilized, 25 C
[11] = biological target: T2, Human GUCY2C full length (SEQ ID NO: …); assay: SPR, GUCY2c directly immobilized, 37 C
[12] = biological target: T3, Cynomolgus GUCY2C-ECD Cleaved; assay: SPR, GUCY2c directly immobilized, 25 C
[13] = biological target: T3, Cynomolgus GUCY2C-ECD Cleaved; assay: SPR, GUCY2c directly immobilized, 37 C
[14] = biological target: T4, Murine GUCY2C-ECD cleaved; assay: SPR, GUCY2c directly immobilized, 25 C
[15] = biological target: T4, Murine GUCY2C-ECD cleaved; assay: SPR, GUCY2c directly immobilized, 37 C
[16] = biological target: T6, Cynomolgus CD3 epsilon-delta; assay: SPR, printed anti-His capture, 25 C (Table 33D)
Human CD3 epsilon-delta [17] = biological target: T5, Human CD3 epsilon-delta; assay: SPR, CD3 captured by anti-His, printed 25 C (Table 33C)
[18] = biological target: T6, Cynomolgus CD3 epsilon-delta; assay: SPR, CD3 captured by anti-His, printed 25 C (Table 33F)
Human GUCY2C ECD-muIgG2a = biological target: T7, Human GUCY2C ECD-muIgG2a (human); assay: sandwich ELISA: CD3 epsilon-delta coated, GUCY2c ECD-mIgG2a Fc in solution
T7 construct: also called human GUCY2c ECD-mouse IgG2a Fc fusion protein; huGUCY2c-mIgG2a
T7 sequence (chain, as listed by the source limits assumed): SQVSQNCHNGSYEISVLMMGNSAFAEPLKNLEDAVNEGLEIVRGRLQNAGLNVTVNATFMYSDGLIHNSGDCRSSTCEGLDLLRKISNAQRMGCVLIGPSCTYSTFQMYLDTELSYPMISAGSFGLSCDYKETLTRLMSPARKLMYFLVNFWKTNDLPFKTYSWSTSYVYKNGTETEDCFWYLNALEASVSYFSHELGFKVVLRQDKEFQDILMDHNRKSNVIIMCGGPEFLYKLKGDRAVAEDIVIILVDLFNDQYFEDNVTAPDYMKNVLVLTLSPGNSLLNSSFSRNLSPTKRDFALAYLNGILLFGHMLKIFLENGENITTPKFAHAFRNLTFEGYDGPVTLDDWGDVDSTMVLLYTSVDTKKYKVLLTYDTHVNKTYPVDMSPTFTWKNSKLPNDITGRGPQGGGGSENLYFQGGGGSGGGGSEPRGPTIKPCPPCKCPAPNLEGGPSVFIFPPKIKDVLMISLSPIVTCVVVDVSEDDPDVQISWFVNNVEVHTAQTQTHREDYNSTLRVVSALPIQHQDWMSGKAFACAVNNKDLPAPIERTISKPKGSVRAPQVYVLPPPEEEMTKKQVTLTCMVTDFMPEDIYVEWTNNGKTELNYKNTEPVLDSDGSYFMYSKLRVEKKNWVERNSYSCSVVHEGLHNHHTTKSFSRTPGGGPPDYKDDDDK

[19] = biological target: T2, Human GUCY2C full length (SEQ ID NO: …); assay: SPR, IgG captured by anti-human Fc
[20] = biological target: T1, Purified human GUCY2c ECD (recombinant, …); assay: ELISA; column 'Direct huGUCY2C binding (nM)'

T1 sequence (P25092 24-430 limits assumed): as the sequence (P25092 24-430 F281L limits assumed) above, with L258F counted along it
Sequence of Human GUCY2c on tumor cells (T84, HT55) (P25092 24-1073 limits assumed): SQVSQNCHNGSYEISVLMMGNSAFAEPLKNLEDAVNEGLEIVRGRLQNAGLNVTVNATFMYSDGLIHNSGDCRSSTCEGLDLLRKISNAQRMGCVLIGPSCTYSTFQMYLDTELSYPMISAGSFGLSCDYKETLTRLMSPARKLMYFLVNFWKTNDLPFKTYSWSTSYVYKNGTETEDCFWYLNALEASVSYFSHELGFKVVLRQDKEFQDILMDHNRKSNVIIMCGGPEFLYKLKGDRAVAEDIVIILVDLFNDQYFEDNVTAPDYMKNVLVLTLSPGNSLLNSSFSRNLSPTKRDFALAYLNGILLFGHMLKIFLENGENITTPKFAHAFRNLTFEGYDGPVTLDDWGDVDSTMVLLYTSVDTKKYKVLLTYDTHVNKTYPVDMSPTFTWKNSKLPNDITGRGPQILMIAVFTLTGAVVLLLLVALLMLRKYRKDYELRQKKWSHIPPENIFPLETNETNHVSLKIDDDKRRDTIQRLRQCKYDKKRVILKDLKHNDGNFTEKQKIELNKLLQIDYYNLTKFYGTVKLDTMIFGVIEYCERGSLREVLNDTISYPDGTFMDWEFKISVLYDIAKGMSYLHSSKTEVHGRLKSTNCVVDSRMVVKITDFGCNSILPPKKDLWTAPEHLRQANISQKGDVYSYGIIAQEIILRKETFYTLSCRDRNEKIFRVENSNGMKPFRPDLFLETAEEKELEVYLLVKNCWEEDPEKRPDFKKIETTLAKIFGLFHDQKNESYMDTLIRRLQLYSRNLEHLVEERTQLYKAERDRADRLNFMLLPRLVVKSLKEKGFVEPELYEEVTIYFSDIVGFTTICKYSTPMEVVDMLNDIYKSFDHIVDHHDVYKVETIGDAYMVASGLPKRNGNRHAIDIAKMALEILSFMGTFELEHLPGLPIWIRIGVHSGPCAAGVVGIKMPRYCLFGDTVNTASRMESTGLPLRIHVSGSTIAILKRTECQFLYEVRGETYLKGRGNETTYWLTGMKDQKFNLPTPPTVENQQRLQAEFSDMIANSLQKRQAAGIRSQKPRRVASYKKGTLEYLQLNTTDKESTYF

B1: GUCY2C-0098 (bispecific antibody)
chain 1: DIVLTQSPASLAVSLGQRATISCRASESVDYYGTSLMQWYQQKPGQPPKLLIYAASNVESGVPARFSGSGSGTDFSLNIHPVEEDDIAMYFCQQTRKVYTFGGGTKLEIKGGGSGGGGEVQLVESGGGLVQPGGSLRLSCAASGFTFSDYYMTWVRQAPGKGLEWVAFIRNRARGYTSDHNPSVKGRFTISRDNAKNSLYLQMNSLRAEDTAVYYCARDRPSYYVLDYWGQGTTVTVSSGCPPCPAPEAAGAPSVFLFPPKPKDTLMISRTPEVTCVVVDVSHEDPEVKFNWYVDGVEVHNAKTKPREEQYNSTYRVVSVLTVLHQDWLNGKEYKCKVSNKALPAPIEKTISKAKGQPREPQVCTLPPSREEMTKNQVSLWCLVKGFYPSDIAVEWESNGQPENNYKTTPPVLDSDGSFFLYSKLTVDKSRWQQGNVFSCSVMHEALHNHYTQKSLSLSPG
chain 2: DIVMTQSPDSLAVSLGERATINCKSSQSLFNVRSRKNYLAWYQQKPGQPPKLLISWASTRESGVPDRFSGSGSGTDFTLTISSLQAEDVAVYYCKQSYDLFTFGSGTKLEIKGGGSGGGGQVQLQQPGAELVKPGASVKLSCKASGYTFTSYWMHWVKQRPGQGLEWIGEIKPSNGLTNYIEKFKNKATLTVDKSATTAYMQLSSLTAEDSAVYYCTRTITTTEGYWFFDVWGAGTTVTVSSGCPPCPAPEAAGAPSVFLFPPKPKDTLMISRTPEVTCVVVDVSHEDPEVKFNWYVDGVEVHNAKTKPREEQYNSTYRVVSVLTVLHQDWLNGKEYKCKVSNKALPAPIEKTISKAKGQPREPQVYTLPPCREEMTKNQVSLSCAVKGFYPSDIAVEWESNGQPENNYKTTPPVLDSDGSFFLVSKLTVDKSRWQQGNVFSCSVMHEALHNHYTQKSLSLSPG
notes: chimeric CD3-GUCY2c diabody-Fc, CD3-0004
B1 was tested, and the “T84 tumor cell EC50 (T cell cytotoxicity, E:T 10:1)” value [1] was 0.41 nM, the EC50 [2] was 60.2 nM and the Kd [3] was 4.96 nM. It also gave a koff [3] of 0.000675 s⁻¹, a kon [3] of 136000 M⁻¹ s⁻¹ and a Kd [4] of 3.93 nM. For the same binder, the koff [4] was 0.000524 s⁻¹, the kon [4] was 134000 M⁻¹ s⁻¹ and the Kd [5] was 107 nM. It also gave a koff [5] of 0.00402 s⁻¹, a kon [5] of 37500 M⁻¹ s⁻¹ and a Kd (Human CD3 epsilon-delta [6]) of 3.26 nM. The koff (Human CD3 epsilon-delta [6]) was 0.000967 s⁻¹, the kon (Human CD3 epsilon-delta [6]) was 297000 M⁻¹ s⁻¹ and the Kd (Human CD3 epsilon-delta [7]) was 4.75 nM. It also gave a koff (Human CD3 epsilon-delta [7]) of 0.00524 s⁻¹, a kon (Human CD3 epsilon-delta [7]) of 1.1e+06 M⁻¹ s⁻¹ and a Kd [8] of 4.94 nM. For the same binder, the koff [8] was 0.00478 s⁻¹, the kon [8] was 969000 M⁻¹ s⁻¹ and the EC50 (Human CD3 epsilon-delta [9]) was 7.24 nM. For the same binder, the Kd [10] was 7.19 nM, the koff [10] was 0.00104 s⁻¹ and the kon [10] was 145000 M⁻¹ s⁻¹. It also gave a Kd [11] of 15 nM, a koff [11] of 0.00377 s⁻¹ and a kon [11] of 251000 M⁻¹ s⁻¹. The Kd [12] was 2.8 nM, the koff [12] was 0.000577 s⁻¹ and the kon [12] was 206000 M⁻¹ s⁻¹. It also gave a Kd [13] of 8.52 nM, a koff [13] of 0.00264 s⁻¹ and a kon [13] of 310000 M⁻¹ s⁻¹. The Kd [14] was 20 nM, the koff [14] was 0.00268 s⁻¹ and the kon [14] was 134000 M⁻¹ s⁻¹. For the same binder, the Kd [15] was 103 nM, the koff [15] was 0.0201 s⁻¹ and the kon [15] was 196000 M⁻¹ s⁻¹. It also gave a Kd [16] of 3.56 nM, a koff [16] of 0.00101 s⁻¹ and a kon [16] of 284000 M⁻¹ s⁻¹. For the same binder, the Kd (Human CD3 epsilon-delta [17]) was 19.9 nM, the koff (Human CD3 epsilon-delta [17]) was 0.0505 s⁻¹ and the kon (Human CD3 epsilon-delta [17]) was 2.51e+06 M⁻¹ s⁻¹. For the same binder, the Kd [18] was 19.3 nM, the koff [18] was 0.0442 s⁻¹ and the kon [18] was 2.28e+06 M⁻¹ s⁻¹. It also gave an EC50 (Human GUCY2C ECD-muIgG2a) of 186 nM.

B2: GUCY2C-0212 (antibody, human IgG1, V domains shown)
VH: EVQLVESGGGLVQPGGSLRLSCAASGYTFTSYWMHWVRQAPGKGLEWIGEIKPSNGLTNYIEKFKNRFTISRDNAKNSLYLQMNSLRAEDTAVYYCARTITTTEGYWFFDVWGQGTLVTVSS
VL: DIQLTQSPSSLSASVGDRVTITCRASESVDYYGTSLMQWYQQKPGKAPKLLIYAASNVESGVPSRFSGSGSGTDFTLTISSLQPEDFATYYCQQTRKVYTFGQGTKLEIK
Work on B2 yielded a Kd [19] of 26 nM and an EC50 [20] of 0.769 nM.

B3: GUCY2C-0486 (antibody, human IgG1, kappa, V domains shown)
VH: EVQLVESGGGLVQPGGSLRLSCAASGYTFTSYWMHWVRQAPGKGLEWIGEIKPSNGLTNVHEKFKNRFTISVDKAKNSAYLQMNSLRAEDTAVYYCTRTITTTEGYWFFDVWGQGTLVTVSS
VL: DIQLTQSPSSLSASVGDRVTITCRASESVDYYGSSLLQWYQQKPGKAPKLLIYAASKLASGVPSRFSGSGSGTDFTLTISSLQPEDFATYYCQQTRKAYTFGQGTKLEIKR
B3 was tested, and the Kd [19] was 5.47 nM.

B4: GUCY2C-0210 (antibody, human IgG1, V domains shown)
VH: EVQLVESGGGLVQPGGSLRLSCAASGYTFTSYWMHWVRQAPGKGLEWIAEIKPSNGLTNYIEKFKNRFTISRDNAKNSLYLQMNSLRAEDTAVYYCARTITTTEGYWFFDVWGQGTLVTVSS
VL: DIQLTQSPSSLSASVGDRVTITCRASESVDYYGTSLMQWYQQKPGKAPKLLIYAASNVESGVPSRFSGSGSGTDFTLTISSLQPEDFATYYCQQTRKVYTFGQGTKLEIK
With B4 the Kd [19] was 85.7 nM and the EC50 [20] was 8.96 nM.

B5: GUCY2C-0241 (antibody, human IgG1, kappa, V domains shown)
VH: EVQLVESGGGLVQPGGSLRLSCAASGYTFTSYWMHWVRQAPGKGLEWIGEIKPSNGLTNYIEKFKNRFTISVDKAKNSAYLQMNSLRAEDTAVYYCTRTITTTEGYWFFDVWGQGTLVTVSS
VL: DIQLTQSPSSLSASVGDRVTITCRASESVDYYGTSLMQWYQQKPGKAPKLLIYAASNVESGVPSRFSGSGSGTDFTLTISSLQPEDFATYYCQQTRKVYTFGQGTKLEIKR
notes: humanized IgG1; used as scFv on phage in the binary substitution library
Binder B5 has a Kd [19] of 9.81 nM and an EC50 [20] of 0.161 nM.
